According to paper PMC8348300:

Assays:
human alpha-thrombin [1] = target: T1, human alpha-thrombin (Homo sapiens, UniProt P00734;P00734 328-363;364-622); test: SPR; 10 mM KCl; SPR (OpenSPR, immobilized thrombin): PBS, 0.005% Tween 20, 10 mM KCl, pH 7.4; TBA 1-16 uM (1-8 uM per Results), annealed 95 C 5 min then cooled to room temperat
human alpha-thrombin [2] = target: T1, human alpha-thrombin; test: SPR; 10 mM KCl; text of 3.2 gives 99 nM; SPR (OpenSPR, immobilized thrombin): PBS, 0.005% Tween 20, 10 mM KCl, pH 7.4; TBA 1-16 uM (1-8 uM per Results), annealed 95 C 5 min then cooled to room temperat
human alpha-thrombin [3] = target: T1, human alpha-thrombin; test: SPR; 10 mM KCl; text of 3.2 gives 99.8 nM; SPR (OpenSPR, immobilized thrombin): PBS, 0.005% Tween 20, 10 mM KCl, pH 7.4; TBA 1-16 uM (1-8 uM per Results), annealed 95 C 5 min then cooled to room temperat
human alpha-thrombin [4] = target: T1, human alpha-thrombin; test: SPR; 10 mM KCl; text of 3.2 gives 97.5 nM; SPR (OpenSPR, immobilized thrombin): PBS, 0.005% Tween 20, 10 mM KCl, pH 7.4; TBA 1-16 uM (1-8 uM per Results), annealed 95 C 5 min then cooled to room temperat

## GGTTGGTGTGGTTGG (structured_DNA, 5' Trebler dendrimer (three arms with terminal hydroxyls)) [5TG]
Human alpha-thrombin [1]
  Kd: 102 nM

## GGTTGGTGTGGTTGG (structured_DNA, T4: C5 NHS-carboxy-dT) [4NHT]
Human alpha-thrombin [2]
  Kd: 102 nM

## GGTTGGTGTGGTTGG (structured_DNA, T4 and T13: C5 NHS-carboxy-dT) [413NHT]
Human alpha-thrombin [3]
  Kd: 102 nM

## GGTTGGTGTGGTTGG (structured_DNA) [TBA (native)]
Human alpha-thrombin [1]
  Kd: 99.8 nM

## GGTTGGTGTGGTTGG (structured_DNA, T13: C5 NHS-carboxy-dT) [13NHT]
Human alpha-thrombin [4]
  Kd: 99.7 nM

## GGTTGGTGTGGTTGG (structured_DNA, 5' Long Trebler dendrimer (three arms with terminal hydroxyls)) [5LTG]
Human alpha-thrombin [1]
  Kd: 99.6 nM
